Assay results reported in patent US20180112001A1 (Regeneron, published 2018).
Numbering of substitutions follows the chain as printed. Names may count otherwise.

T1: soluble monomeric human MUC16, truncated format encompassing the last five SEA domains of Mucin-16 (human)
T1 construct: also called hMUC16.mmh; MUC16 "nub"
T1 chain: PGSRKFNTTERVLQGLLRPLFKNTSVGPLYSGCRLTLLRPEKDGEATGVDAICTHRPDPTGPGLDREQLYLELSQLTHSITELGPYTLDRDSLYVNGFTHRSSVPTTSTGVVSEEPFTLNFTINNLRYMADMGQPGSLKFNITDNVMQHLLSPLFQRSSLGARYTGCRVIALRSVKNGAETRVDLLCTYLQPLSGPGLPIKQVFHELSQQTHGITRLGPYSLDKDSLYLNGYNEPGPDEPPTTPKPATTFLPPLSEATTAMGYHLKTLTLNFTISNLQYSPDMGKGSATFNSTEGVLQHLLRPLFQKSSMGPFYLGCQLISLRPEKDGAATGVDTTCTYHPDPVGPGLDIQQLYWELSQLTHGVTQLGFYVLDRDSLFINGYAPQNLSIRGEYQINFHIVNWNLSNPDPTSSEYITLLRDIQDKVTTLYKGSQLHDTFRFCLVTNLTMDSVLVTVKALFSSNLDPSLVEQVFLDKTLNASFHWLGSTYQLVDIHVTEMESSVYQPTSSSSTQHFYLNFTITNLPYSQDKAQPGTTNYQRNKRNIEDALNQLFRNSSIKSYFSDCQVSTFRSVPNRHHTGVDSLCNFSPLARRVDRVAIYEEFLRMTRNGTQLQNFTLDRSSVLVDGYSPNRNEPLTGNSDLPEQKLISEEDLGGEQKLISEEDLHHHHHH

B1: H2M7135N (antibody, mouse IgG2, V domains shown)
VH: EVQLVESGGGLVQAGGSLRLSCAASGFTFSYHEMNWVRQAPGKGLEWVSYIGSRGTTKHYADPVKGRFTISRDNAKNSLYLQMNSLRAEDTAVYYCASEVGSILGYSMDVWGQGTTVTVSS
VL: DIQMTQSPSSLSASVGDRVTITCRASQSVSRYLNWCQQKPGKAPKLLTYAASSLQSGVPSRFSGSGSGTDFTLTISSLQPEDFAAYFCQQSYSTPPITFGQGTRLEIK
notes: Mouse IgG2 constant region (H2M)
B2: H1H8770P (antibody, human IgG1, V domains shown)
VH: QVQLVESGGGVVQPGRSLRLSCAASGFTFSDHGMHWVRQAPGKGLEWVAVISYHGSNKHYADSVKGRFTISRDNSKNALYLQMNSLRPEDTAMYYCAKDGYDFWNGYSLFDYWGQGTLVTVSS
VL: B1 VL with V29I, R31N, C36Y, T48I, A50T, S53N, Q55L, A85T, F87Y, R104K
notes: Human IgG1 (H1H)
B3: H1H8783P (antibody, human IgG1, V domains shown)
VH: B2 VH with G33A, S56T, N57D, H59Q, A61G, G106A
VL: B1 VL with V29I, R31N, C36Y, T48I, A50T, Q55L, A85T, F87Y
notes: Human IgG1 (H1H)
B4: H3M9524N (antibody, mouse IgG3, V domains shown)
VH: QVQLQQWGAGLLKPSETLSLTCAVYGGSFSDYYWSWIRQPPGKGLEWIGEINHRGKTNYNPSLKSRVSISVDPSKNQFSLKLSSVTAADTAVYYCARQGWNYAIFDYWGQGILVPVSS
VL: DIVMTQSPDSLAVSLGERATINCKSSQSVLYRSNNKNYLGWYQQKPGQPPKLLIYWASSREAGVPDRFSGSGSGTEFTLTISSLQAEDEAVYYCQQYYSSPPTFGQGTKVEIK
notes: Mouse IgG3 constant region (H3M)
B5: H3M9525N (antibody, mouse IgG3, V domains shown)
VH: B4 VH with D31G, R54S, N58T, N60S, S68T, P73T, N76S, W100L, I112T, P115T
VL: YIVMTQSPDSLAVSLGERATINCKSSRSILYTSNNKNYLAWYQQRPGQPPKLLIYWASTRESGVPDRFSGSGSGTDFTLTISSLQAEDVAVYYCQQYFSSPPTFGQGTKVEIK
notes: as for B4
B6: H1H9525N (antibody, human IgG1, V domains shown)
VH: B4 VH with D31G, R54S, N58T, N60S, S68T, P73T, N76S, W100L, I112T, P115T
VL: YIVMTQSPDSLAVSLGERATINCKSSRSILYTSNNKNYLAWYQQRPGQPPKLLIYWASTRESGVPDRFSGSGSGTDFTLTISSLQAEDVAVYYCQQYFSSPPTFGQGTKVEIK
notes: Human IgG1 Fc version
B7: H1H9524N (antibody, human IgG1, V domains shown)
VH: B4 VH
VL: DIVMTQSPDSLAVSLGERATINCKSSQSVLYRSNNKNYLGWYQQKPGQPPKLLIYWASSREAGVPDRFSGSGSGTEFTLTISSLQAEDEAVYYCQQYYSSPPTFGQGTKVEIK
notes: Human IgG1 Fc version
B8: H1M7137N (antibody, mouse IgG1, V domains shown)
VH: QVQLQESGPGLVKPSETLSLTCTVSGGAINTYYWSWIRQPPGKGLEWIGYIYYRGNTNYNPSLRSRVTISVDTSKNQFFLKLRSVTVADSAVYFCARGWNYRAEYFQHWGQGTVVTVSS
VL: not shown
notes: Mouse IgG1 constant region (H1M)
B9: H1H8755P (antibody, human IgG1, V domains shown)
VH: EVQLVESGGGLVQPGRSLRLSCAASGFTFNDYAMHWVRQSPGKGLEWVSGIDWNGGSIDYADSVKGRFTISRDTAKNSLYLQMNSLKVEDTALYYCAKDIGHWNYIGGMDVWGQGTTVTVSS
VL: DIQMTQSPSSLSASVGDRVTITCRASQSINIYLNWYQQKPGKAPKFLIYAASSLQTGVPSRFSGSGSGTDFTLTISSLEPEDFATYYCQHSYSTPPITFGQGTRLEIK
notes: Human IgG1 (H1H)
B10: H1H8794P (antibody, V domains shown)
VH: QVQLVESGGGLVKPGGSLRLSCAASGFTFRDYSMSWIRQAPGKGLEWVSYVTFFNSAIYYADSVKGRFTISRDNAKNSLYLQMNSLRAEDTAVYYCAREREPIVGGFDYWGQGTLVTVSS
VL: B9 VL with I31S, F46L, T56G, S65G, S76T, E79Q, Y86F, H90Q, T94S
notes: Human IgG1 (H1H)
B11: H1H9528N (antibody, human IgG1, V domains shown)
VH: QMQLQESGPGLVKPSETLSLTCTVSGGSISSYYWNWIRQPPGKGLEWIGYIYYSGNNFNPSLKSRVTISVDTSKNQFSLKLSSVTAADTAVYYCARAFHWNYEFDYWGQGTLVTVSS
VL: EIVLTQSPGTLSLSPGERATLSCRASQSVSNNYLAWYQQKPGQAPRLLLYGASSRTTDIPDRFSGSGSGTDFTLTISRLEPEDFAVYYCQQYDNSPLTFGGGTKVEIR
notes: Human IgG1 Fc version
B12: H2M9538N (antibody, V domains shown)
VH: QVQLQESGPGLVKPSETLSLTCTVSGGSISSYYWSWIRQPPGKGLEWIGYIYYSGSTNYNPSLKSRVTISVDTSKNQFSLKLSSVTAADTAVYYCARKKLVFDYWGQGTLVTVSS
VL: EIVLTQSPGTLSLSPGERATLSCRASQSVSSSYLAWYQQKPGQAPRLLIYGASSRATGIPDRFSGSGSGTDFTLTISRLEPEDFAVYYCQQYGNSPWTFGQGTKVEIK
B13: H1H9538N (antibody, V domains shown)
VH: B12 VH
VL: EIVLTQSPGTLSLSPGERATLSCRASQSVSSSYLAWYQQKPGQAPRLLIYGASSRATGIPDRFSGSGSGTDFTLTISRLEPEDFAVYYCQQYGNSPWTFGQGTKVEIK
B14: H1H9529N (antibody, human IgG1, V domains shown)
VH: QVQLQQWGAGLLKPSETLSLTCAVYGGSFSGFYWSWIRQPPGKGLEWIGEINHSGSAKYNPSLKNRVIISIDTSKNQFSLKLDSVTAADTAVYNCARQGWNFAIFDYWGQGTLVDVSS
VL: DIVMTQSPDSLAVSLGGRATINCKSSQSVLHSSYNKDHLAWYQQRPGQPPKLLIYWASTRESGVPDRFSGSGSGTDFTLTISSLQAEDVAVYYCQQYNILPPTFGQGTRVEIK
notes: Human IgG1 Fc version
B15: H1H8790P (antibody, human IgG1, V domains shown)
VH: EVQLVESGGGLVQPGGSLRLSCEASGFTFSNYAMSWVRQAPGKGLEWVSGMSGSGTYPYYADSVKGRFTISRDNSKNMLYLQMNSLRVKDTAVYYCAKDGVDTAMILDTFDLWGQGTMVTVSS
VL: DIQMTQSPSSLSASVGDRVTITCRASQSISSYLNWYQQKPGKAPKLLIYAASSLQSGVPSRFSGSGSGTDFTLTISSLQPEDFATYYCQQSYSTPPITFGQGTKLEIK
notes: Human IgG1 (H1H)

Target: T2, human MUC16 (mucin 16), endogenously expressed on cells (human)
T2 construct: Endogenous MUC16 on OVCAR-3 / OVCAR3-Luc / PEO-1 / HPAC cells; also called hMUC16
Experiment: MSD electrochemiluminescence cell binding; RLU ratio OVCAR-3/SK-OV-3; Ab 16.7 nM

In order of falling “Ratio: anti-MUC16 Binding OVCAR-3/SK-OV-3” value:
1. B14  74 ratio
2. B4  57 ratio
3. B5  51 ratio
4. B7  48 ratio
5. B8  29 ratio
6. B12  26 ratio
7. B6  21 ratio
8. B11  18 ratio
9. B13  13 ratio
10. B1  5 ratio
11. B9  5 ratio
12. B3  4 ratio
13. B2  3 ratio
14. B10  3 ratio
15. B15  3 ratio

Target: T1, soluble monomeric human MUC16, …
Experiment: SPR Biacore, antibody captured, soluble monomeric hMUC16.mmh injected, 25C

In order of falling Kd:
1. B15  7.53 nM
2. B2  1.25 nM
3. B10  0.771 nM
4. B3  0.614 nM
5. B9  0.286 nM

In order of rising koff:
1. B3  0.000107 s⁻¹
2. B9  0.000149 s⁻¹
3. B10  0.000279 s⁻¹
4. B2  0.000308 s⁻¹
5. B15  0.000761 s⁻¹

In order of rising kon:
1. B15  101000 M⁻¹ s⁻¹
2. B3  174000 M⁻¹ s⁻¹
3. B2  247000 M⁻¹ s⁻¹
4. B10  362000 M⁻¹ s⁻¹
5. B9  522000 M⁻¹ s⁻¹

In order of rising “t1/2” value:
1. B15  15 min
2. B2  38 min
3. B10  41 min
4. B9  77 min
5. B3  108 min

Target: T2, human MUC16 (mucin 16), endogenously …
Experiment: MSD electrochemiluminescence cell binding; RLU ratio OVCAR-3/SK-OV-3; Ab 1.9 nM

In order of falling “Ratio: anti-MUC16 Binding OVCAR-3/SK-OV-3” value:
1. B5  137 ratio
2. B14  109 ratio
3. B12  89 ratio
4. B4  81 ratio
5. B8  77 ratio
6. B11  41 ratio
7. B1  30 ratio
8. B7  20 ratio
9. B9  13 ratio
10. B13  12 ratio
11. B3  11 ratio
12. B2  9 ratio
13. B10  8 ratio
14. B15  8 ratio
15. B6  4 ratio

Target: T1, soluble monomeric human MUC16, …
Experiment: SPR Biacore, antibody captured, soluble monomeric hMUC16.mmh injected, 25C
Remark: another data set of the same source

In order of falling Kd:
1. B1  4.27 nM
2. B8  1.72 nM

In order of falling koff:
1. B1  0.000218 s⁻¹
2. B8  9.09e-05 s⁻¹

In order of rising kon:
1. B1  51000 M⁻¹ s⁻¹
2. B8  53000 M⁻¹ s⁻¹

In order of falling “t ½” value:
1. B8  127 min
2. B1  53 min

B4: no binding.
B5: no binding.
